T1: hiR2-FL-M534-T7 (deletion of M534) (human, UniProt Q6PJF5 1-856)
T1 construct: single amino acid deletion
T1 sequence: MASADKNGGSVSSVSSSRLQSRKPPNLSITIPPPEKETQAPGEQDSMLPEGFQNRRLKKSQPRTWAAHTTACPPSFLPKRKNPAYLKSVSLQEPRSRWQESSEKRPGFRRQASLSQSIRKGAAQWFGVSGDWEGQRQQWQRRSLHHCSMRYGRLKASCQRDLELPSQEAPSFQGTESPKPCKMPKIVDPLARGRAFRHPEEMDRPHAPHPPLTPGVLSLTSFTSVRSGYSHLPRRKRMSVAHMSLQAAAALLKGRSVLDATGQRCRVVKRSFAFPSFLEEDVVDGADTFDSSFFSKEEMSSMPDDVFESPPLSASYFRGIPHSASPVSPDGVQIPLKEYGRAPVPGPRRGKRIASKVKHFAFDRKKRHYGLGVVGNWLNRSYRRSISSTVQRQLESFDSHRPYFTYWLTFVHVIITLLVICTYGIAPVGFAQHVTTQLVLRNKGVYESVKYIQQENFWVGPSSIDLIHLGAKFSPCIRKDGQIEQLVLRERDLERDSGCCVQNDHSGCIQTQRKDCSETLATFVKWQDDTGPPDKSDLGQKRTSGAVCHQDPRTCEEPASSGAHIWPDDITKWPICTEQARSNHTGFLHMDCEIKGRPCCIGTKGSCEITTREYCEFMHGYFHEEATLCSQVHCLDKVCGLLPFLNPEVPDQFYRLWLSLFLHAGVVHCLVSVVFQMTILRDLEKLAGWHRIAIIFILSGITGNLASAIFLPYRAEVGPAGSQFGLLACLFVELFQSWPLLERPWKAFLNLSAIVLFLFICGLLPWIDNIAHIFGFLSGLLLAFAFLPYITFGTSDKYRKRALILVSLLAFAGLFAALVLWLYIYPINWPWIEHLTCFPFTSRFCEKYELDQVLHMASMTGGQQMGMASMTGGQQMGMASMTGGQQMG

B1: antibody 5 (antibody, V domains shown)
VH: QVTLKESGPGILQPSQTLSLTCSFSGFSLSTFGMGVGWIRQPSGKGLEWLAHIWWDDEKYYNSALKSRLTISKATSKNQAFLKIANVDTADTATYYCARISNYGSNYWYFNVWGTGTTVTVSS
VL: QVVLTQSPALMSASPGEKVTMTCSAGSSVSCMYWYQQKPGSSPRVLIYDTSNLASGVPARFTGSGSGTSYSLTISRMEAEDAASYYCQQWNSYPLTFGAGTKLELK
notes: mouse IgG, kappa light chain; also called clone #5; purified antibody 5
B2: antibody 44 (antibody, V domains shown)
VH: QVTLKESGPGILQPSQTLSLTCSFSGFSLSTFGMGVGWIRQPSEKGLEWLAHIWWDDDKYYNPALKSRLTISKDTSKNQIFLKITNVDTAETATYYCSRIGNYGSNYWYFDVWGTGTTVTVSS
VL: QIVLTQSPAVMSASPGEKVTMTCTASSSVYYMYWYQQTPGSSPRLLIYDTSNLASGVPVRFSGSGSGTSYSLTISRMEAEDAATYYCQQWNTYPLTFGAGTKLELK
notes: mouse IgG, kappa light chain; also called clone #44; purified antibody 44
B3: antibody 43 (antibody, V domains shown)
VH: QVALKESGPGILQPSQTLSLTCSFSGFSLSTFGMGVGWIRQSSGKGLEWLANIWWDDDKYYNPALKSRLTISKDASKNQAFLKIANVDTADTATYYCARIGNYGSNYWYFDVWGTGTTVTVSS
VL: QIVLTQSPAIMSASPGERVTMTCSANSRISYMYWYQQKPGSSPRLLIYDTSNLASGVPVRFSGSGSGTSYSLTISRMEAEDAATYNCQQWSSYPLTFGAGTKLELK
notes: mouse IgG, kappa light chain; also called clone #43; purified antibody 43
B4: antibody 42 (antibody, V domains shown)
VH: QVTLKESGPGILQPSQTLSLTCSLSGFSLSTFGRGVGWIRQPSGKGLEWLAHIWWDDEKYYNPALKSRLTISKDTSKNQVFLRIANVDTADTATYYCARIQNYGSNYWYFDVWGTGTTVTVSS
VL: LIVLTQSPAIMSASPGEKVTMTCGATSRISYMFWYQQKPGSSPRVLIYDTSNLASGVPVRFSGSGSGTSYSLTISRVEAEDVATYYCQQWNSYPLTFGAGTKLELK
notes: mouse IgG, kappa light chain; also called clone #42; purified antibody 42
B5: antibody 22 (antibody, V domains shown)
VH: QVTLKESGPGILQPSQTLSLTCSFSGFSLSTFGMGVGWIRQPSGKGLEWLAHIWWDDEKYYNSALKSRLTISKATSKNQVFLKIANVDTADTATYYCARISNYGSNYWYFNVWGTGTTVTVSS
VL: QVVLTQSPALMSASPGEKVTMTCSAGSSVSYMYWYQQKPGSSPRVLIYDTSNLASGVPARFTGSGSGTSYSLTISRMEAEDAATYYCQQWNSYPLTFGAGTKLELK
notes: mouse IgG, kappa light chain; also called clone #22; purified antibody 22
B6: antibody 16 (antibody, V domains shown)
VH: QVTLKESGPGILQPSQTLSLTCSFSGFSLSTFALGVGWIRQPSGRGLEWLAHIWWDDDKYYNPALKSRLTISKDTSKNHVFLKIANVDTADTATYYCARITTYYYGMDYWGQGTSVTVSS
VL: DIVLSQSPATLSVTPGDSVSLFCRASQSIGNHLHWYQQESHASPRLLIKYASQSISGIPSRFSGSGSGTDFTLSINSVETEDFGMYFCQQSYNWPLTFGAGTKLELK
notes: mouse IgG, kappa light chain; also called clone #16; purified antibody 16
B7: antibody 3 (antibody, V domains shown)
VH: QVTLKESGPGILQPSQTLSLTCSFSGFSLTTFAMGIGWVRQPSGKGLEWLAHIWWDGEKYNNPVLKSRLTISKDTSKNQVFLRIANVDTPDTATYYCARISSIYYIIDNWGQGTSVTVSS
VL: DIVLTQSPATLSVTPGHSVSLSCRASQSISNNLHWYQKKSHESPRLLIKYVSQSISGIPSRFSGSGSGTDFTLSINSVETEDFGMYFCQQSYNWPLTFGAGTKLELK
notes: mouse IgG, kappa light chain; also called clone #3; purified antibody 3
B8: antibody 34 (antibody, V domains shown)
VH: QVTLKESGPGILQPSQTLSLTCSFSGFSLSTFSLGVGWIRQSSGKGLEWLAHIWWDDEKYYNPALKSRLTISKDTSKNQVFLKIANVDAADTATYYCARAYYSKSYYALDYWGQGTSVTVSS
VL: DIQMTQSPSSLSASLGERVSLTCRASQEISGYLSWLQQKPDGTIKRLIYAASTLDSGVPKRFSGSRSGSDYSLAISSLESEDFADYYCLQYANFPFTFGSGTKLEIK
notes: mouse IgG, kappa light chain; also called clone #34; purified antibody 34

Each binder was assayed against T1, hiR2-FL-M534-T7 (deletion of M534) (assay: FACS, MEF-DKO cells, 3 µg/ml).
In the case of B1, the “loss of binding vs wild type” value is reported as ≥ 95%. B2 was tested, and the “loss of binding vs wild type” value was ≥ 95%. For B3, the “loss of binding vs wild type” value was ≥ 95%. In the case of B4, the “loss of binding vs wild type” value is reported as ≥ 95%. B5 was tested, and the “loss of binding vs wild type” value was ≥ 95%. For B6, the “loss of binding vs wild type” value was ≥ 95%. For B7, the “loss of binding vs wild type” value was ≥ 95%. B8 was tested, and the “loss of binding vs wild type” value was ≥ 95%.

— US20240287172A1 (SCIRHOM, published 2024)
